Laboratory results: article PMC10460364

Tests used:
[1] = system: Cys42; test: UV-vis; conditions: 10 °C; poly-buffer: 10 mM sodium acetate, 10 mM sodium phosphate, 10 mM sodium borate, 10 mM sodium citrate, pH 9.4, titrated with 100 mM HCl; Reduced protein (20 µM), referenced to CHP-oxidised protein; folded.
[2] = system: Cys45; test: UV-vis; conditions: 10 °C; poly-buffer: 10 mM sodium acetate, 10 mM sodium phosphate, 10 mM sodium borate, 10 mM sodium citrate, pH 9.4, titrated with 100 mM HCl; Reduced protein (20 µM), referenced to CHP-oxidised protein; folded.

Substance: Alkyl hydroperoxide reductase CgAhp (NCgl0877), AhpD-like disulfide oxidoreductase (Corynebacterium glutamicum (strain RES167, derivative of ATCC 13032))
- pKa [1]: lower than 6
- pKa [2]: 8.39
